US20140308707A1, “METHOD FOR PRODUCTION OF FACTOR VIII” (Novo Nordisk A/S, priority 2011, published 2014)
Values joined by “and” are separate entries in the source; they are usually repeats but may differ in a detail not shown here. Identical values can stand only once.

Columns and labels:
[1] = tested on: CHO DUKX B11 cells stably expressing BDD-FVIII; test: FVIII membrane displacement cell cultures (additives in culture medium, culture fluid and membrane bound fraction assayed); format: cell-based; conditions: 24 hours, serum free medium, OPLS 20 mM, F8 LC 1.38 μM, Lactadherin 0.15 μM, unit from b101
Description: The additives mentioned below (lactadherin, Factor VIII light chain and/or OPLS) were added to the culture medium and the cells were incubated for 24 hours following assaying of the culture fluid and the membrane bound fraction.

[2] = tested on: cell membrane of HEK293 cells; test: Homologous competition assay: binding of 125I-BDD-FVIII to the cell membrane with blocking agents; conditions: for % of total binding: 0.5 nM 125I-FVIII, 4° C., 2 hours, Annexin V 500 nM, OPLS 20 mM, Heparin 100 ug/mL, RAP 500 nM; for reduction of membrane attached FVIII: same experiment as Table 2
Description: The affinity of purified B-domain deleted factor VIII (BDD-FVIII) (kindly provided by J. Karlsson and L. Thim, Novo Nordisk A/S) to the cell membrane of HEK293 cells was investigated by a homologous competition assay using ^125I-BDD-FVIII and unlabelled BDD-FVIII. Cells were washed once in PBS+1% BSA. 5×10^5 cells were distributed to a microtiter well and the plate was cooled to 4° C. During blocking of the cell surface, binding of BDD-FVIII was examined. A constant concentration of ^125I-FVIII (0.5 nM) was added simultaneously with either Annexin V (0.5 μM, Sigma), Ortho-Phospho-L-serine (20 mM, Sigma), Heparin (100 μg mL-1, Leo Pharmaceuticals), and Receptor Associated Protein (RAP) 0.5 μM (kindly provided by H. H. Petersen, Novo Nordisk A/S) at 4° C. to prevent endocytosis.
The plate was incubated at 4° C. for 2 hours with gentle shaking. After centrifugation unbound (non-membrane attached) ^125I-FVIII was removed and cells were washed twice in ice-cold assay buffer (10 mM HEPES, 150 mM NaCl, 4 mM KCl, 11 mM glucose, 5 mM CaCl2, 1 mg ml^−1 BSA, pH 7.4). Surface bound ^125I-FVIII was counted on a gamma-counter. The experiments were performed twice in triplicate. Non-specific binding was estimated in the presence of 12000× excess of unlabeled BDD Factor VIII.
In an attempt to determine potent inhibitors of the cell membrane interaction, four proteins known for their specific effect in either: 1) blocking phosphatidylserine (annexin V), 2) interacting with the C2 domain of FVIII (OPLS), 3) interacting with receptors that facilitate internalisation followed by degradation such as LRP (Lipoprotein receptor-related protein) and HSPGs (heparin sulphate proteoglycans) were tested (RAP, heparin).

[3] = tested on: HKB11 cells; test: Transient co-expression with F8, FVIII coagulation activity (two-stage chromogenic assay, coa); format: cell-based; conditions: for displacement of F8 from the cell surface into the supernatant: in words
Description: (§1) HEK293 cells were maintained in commercial FreeStyle medium supplemented with 50 U/mL penicillin and 50 ug/mL streptomycin. Cells were grown as suspension cells in shakers and incubated at 37° C. under 5% CO2 and 95% relative humidity conditions.
(§2) Cells were seeded at a density of 3×10^5 cells/mL and passaged every 3-4 days. For transfection experiments the cell culture was scaled up until the target density was reached. Viable and total cell concentrations were evaluated by Cedex (Innovartis) analysis. The instrument uses image analysis software for automated cell counting and viable cells were identified based on their ability to exclude trypan blue.
(§3) Plasmid DNA was transfected into HKB11 cells by 293 fectin following the manufacturer's recommendations. Conditioned medium was harvested on indicated days following gentle centrifugation of the suspension culture. The cell pellet was resuspended in FreeStyle medium containing 0.5M NaCl and after gentle centrifugation, a sample, representing the FVIII attached to the cell membrane was taken. Samples were stored at −80° C. until analysis.
(§4) FVIII coagulation activity was measured by a two-stage chromogenic assay (Coamatic Factor VIII analysis kit, Chromogenix). Factor VIII:Ag assay was performed using polyclonal antibodies from Affinity Biologicals (F8C-EIA). Both assays were done following the manufactures instructions and with in-house B-domain deleted affinity purified Factor VIII as standard.

[4] = tested on: HKB11 cells; test: Transient co-expression with F8, Factor VIII:Ag ELISA; format: cell-based
Description: as §1, §2, §3, §4

N[C@@H](COP(=O)(O)O)C(=O)O [OPLS, Ortho-Phospho-L-serine, reference compound]
supernatant average (activity of FVIII in the culture medium) [1]: 6000 mU/mL and 6347 mU/mL | wash average (FVIII activity on the membrane) [1]: 1691 mU/mL | % of total binding [2]: 68.4% | reduction of membrane attached FVIII [2]: ~30%

Heparin
% of total binding [2]: 86.8% | reduction of membrane attached FVIII [2]: small but not significant effect

RAP: Receptor Associated Protein (RAP)
% of total binding [2]: 106.6% | reduction of membrane attached FVIII [2]: no effect

B1: Annexin V: Ca++ dependent phospholipid-binding protein that react with phosphatidylserine (Sigma) (protein)
chain: MAQVLRGTVTDFPGFDERADAETLRKAMKGLGTDEESILTLLTSRSNAQRQEISAAFKTLFGRDLLDDLKSELTGKFEKLIVALMKPSRLYDAYELKHALKGAGTNEKVLTEIIASRTPEELRAIKQVYEEEYGSSLEDDVVGDTSGYYQRMLVVLLQANRDPDAGIDEAQVEQDAQALFQAGELKWGTDEEKFITIFGTRSVSHLRKVFDKYMTISGFQIEETIDRETSGNLEQLLLAVVKSIRSIPAYLAETLYYAMKGAGTDDHTLIRVMVSRSEIDLFNIRKEFRKNFATSLYSMIKGDTSGDYKKALLLLCGEDD
modifications: homo sapiens
% of total binding [2]: 28.5% | reduction of membrane attached FVIII [2]: ~70%

B2: Lactadherin: lactadherin, agent that binds to phosphatidylserine; added to medium or co-expressed with F8 (protein)
chain: LDICSKNPCHNGGLCEEISQEVRGDVFPSYTCTCLKGYAGNHCETKCVEPLGMENGNIANSQIAASSVRVTFLGLQHWVPELARLNRAGMVNAWTPSSNDDNPWIQVNLLRRMWVTGVVTQGASRLASHEYLKAFKVAYSLNGHEFDFIHDVNKKHKEFVGNWNKNAVHVNLFETPVEAQYVRLYPTSCHTACTLRFELLGCELNGCANPLGLKNNSIPDKQITASSSYKTWGLHLFSWNPSYARLDKQGNFNAWVAGSYGNDQWLQVDLGSSKEVTGIITQGARNFGSVQFVASYKVAYSNDSANWTEYQDPRTGSSKIFPGNWDNHSHKKNLFETPILARYVRILPVAWHNRIALRLELLGC
modifications: homo sapiens
notes: added to medium or co-expressed with F8
supernatant average (activity of FVIII in the culture medium) [1]: 8085 mU/mL | wash average (FVIII activity on the membrane) [1]: 1406 mU/mL | supernatant average (activity of FVIII in the culture medium) ([1]; listed as lactadherin): further increases the amount of FVIII in the culture medium | wash average (FVIII activity on the membrane) ([1]; listed as lactadherin): a decline in membrane bound FVIII is observed | displacement of F8 from the cell surface into the supernatant ([3]; day 3, viability ~90%): effectively displacement | displacement of F8 from the cell surface into the supernatant ([3]; day 4, viability ~80%): could no longer keep F8 in the supernatant | coa, supernatant ([3]; harvest day 3, supernatant): 5448 +/− 122 mU/ml | coa, wash ([3]; harvest day 3, wash (0.5M NaCl, membrane attached FVIII)): 640 +/− 116 mU/ml | coa, supernatant ([3]; harvest day 4, supernatant): 1044 +/− 425 mU/ml | coa, wash ([3]; harvest day 4, wash (0.5M NaCl, membrane attached FVIII)): 3575 +/− 558 mU/ml | coa, supernatant ([3]; harvest day 5, supernatant): 327 +/− 13 mU/ml | coa, wash ([3]; harvest day 5, wash (0.5M NaCl, membrane attached FVIII)): 3510 +/− 46 mU/ml | FVIII ELISA, supernatant ([4]; harvest day 3, supernatant): 530 ± 113 ng/mL | FVIII ELISA, wash ([4]; harvest day 3, wash): 67 ± 0 ng/mL | FVIII ELISA, supernatant ([4]; harvest day 4, supernatant): 270 ± 54 ng/mL | FVIII ELISA, wash ([4]; harvest day 4, wash): 278 ± 37 ng/mL | FVIII ELISA, supernatant ([4]; harvest day 5, supernatant): 108 ± 119 ng/mL | FVIII ELISA, wash ([4]; harvest day 5, wash): 287 ± 33 ng/mL
